According to paper PMC7425986 (PLoS Pathogens, 2020):

T1: gB 15-mer library peptide, residues 69-83 (Human cytomegalovirus, strain AD169)
T1 construct: source: synthetic peptide, bought: JPT Peptide Technologies
T1 chain: ETIYNTTLKYGDVVG

T2: gB-p17 (Human cytomegalovirus, strain AD169)
T2 chain: HRANETIYNTTLKYG

T3: biotinylated full-length peptide, residues 59–88 of gB (Human cytomegalovirus AD169, UniProt P06473)
T3 construct: also called full-length peptide (white column); source: synthetic peptide, bought: JPT Peptide Technologies
T3 chain: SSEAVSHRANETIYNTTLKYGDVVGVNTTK

T4: gB P_(064-083) (Human cytomegalovirus, strain AD169)
T4 construct: source: synthetic peptide
T4 chain: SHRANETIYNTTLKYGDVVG


Key:
[1] = target: T1, gB 15-mer library peptide, residues …; assay: ELISA; settings: both partners purified
gB-p17 [2] = target: T2, gB-p17; assay: ELISA; settings: both partners purified
[3] = target: T3, biotinylated full-length peptide, …; assay: ELISA; settings: both partners purified
gB P_(064-083) = target: T4, gB P_(064-083); assay: ELISA; settings: both partners purified
gB on HCMV whole virion = gB on HCMV whole virion (Human cytomegalovirus, virion strain …, UniProt P06473); assay: ELISA; inactivated virion (2 μg/mL) coated; 2-fold serially diluted IgG, Fab or (Fab)2, 90 min RT; HRP goat anti-human (Fab)2; settings: one partner purified
Sequence of gB on HCMV whole virion (P06473 32-906): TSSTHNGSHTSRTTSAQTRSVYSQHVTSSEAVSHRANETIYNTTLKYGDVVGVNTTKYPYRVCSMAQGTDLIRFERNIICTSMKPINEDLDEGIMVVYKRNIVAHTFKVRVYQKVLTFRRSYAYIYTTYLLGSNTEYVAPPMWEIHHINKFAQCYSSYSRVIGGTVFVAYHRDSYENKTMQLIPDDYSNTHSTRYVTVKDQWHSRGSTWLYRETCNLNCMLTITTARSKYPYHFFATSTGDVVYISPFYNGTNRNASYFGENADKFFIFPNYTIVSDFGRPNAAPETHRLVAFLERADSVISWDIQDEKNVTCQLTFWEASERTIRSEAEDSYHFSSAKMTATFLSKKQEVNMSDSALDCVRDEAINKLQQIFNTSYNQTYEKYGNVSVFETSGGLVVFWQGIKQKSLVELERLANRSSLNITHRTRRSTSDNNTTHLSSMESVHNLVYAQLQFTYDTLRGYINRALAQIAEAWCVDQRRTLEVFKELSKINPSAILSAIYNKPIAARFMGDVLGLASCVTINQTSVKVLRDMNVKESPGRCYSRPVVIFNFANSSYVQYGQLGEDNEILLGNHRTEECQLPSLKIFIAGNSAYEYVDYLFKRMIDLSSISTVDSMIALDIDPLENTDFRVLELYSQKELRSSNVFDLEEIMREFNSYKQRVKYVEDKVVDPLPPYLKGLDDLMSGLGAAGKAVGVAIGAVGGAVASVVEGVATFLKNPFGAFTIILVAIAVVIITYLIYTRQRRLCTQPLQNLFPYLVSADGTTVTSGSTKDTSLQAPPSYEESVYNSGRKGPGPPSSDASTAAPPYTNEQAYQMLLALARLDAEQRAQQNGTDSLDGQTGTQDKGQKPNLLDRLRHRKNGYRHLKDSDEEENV

gB-p17 [4] = target: T2, gB-p17; assay: crystal structure; settings: both partners purified

| Binder | binding result [1] | binding result (gB-p17 [2]) | binding result [3] | binding result (gB P_(064-083)) | EC50 (gB on HCMV whole virion) [nM] | binding result (gB-p17 [4]) |
| --- | --- | --- | --- | --- | --- | --- |
| 3–25 IgG (antibody, V domains shown) VH: QVQLVESGGGVVQPGRSLRLSCAASGFTFSNHGLHWVRQPPGKGLEWVAVVSKDGTNEHYADSVRGRFTISRDNSKNTLYLLMKSLRLEDTAVYYCAREGYCGDDRCYSGQPDYWGQGILVTVSS VL: EIVLTQFPATLSLSPGERATLSCRASQSVGRYLAWYQQKPGQAPRLLIYDSSNRATGVPARFSGSGSGTDFTLSISSLEPEDFAVYFCQQRSHWPPLTFGGGTKVEIK | binds | binds | binds | binds | 18.9 | – |
| 3–25 Fab (Fab, V domains shown) VH: QVQLVESGGGVVQPGRSLRLSCAASGFTFSNHGLHWVRQPPGKGLEWVAVVSKDGTNEHYADSVRGRFTISRDNSKNTLYLLMKSLRLEDTAVYYCAREGYCGDDRCYSGQPDYWGQGILVTVSS VL: EIVLTQFPATLSLSPGERATLSCRASQSVGRYLAWYQQKPGQAPRLLIYDSSNRATGVPARFSGSGSGTDFTLSISSLEPEDFAVYFCQQRSHWPPLTFGGGTKVEIK | – | – | – | – | 66.9 | binds |
